The supplement of paper PMC5998384

Key:
HeLa Kyoto [1] = assay: thermal stability score vs G1/S (z-score of summed log2 fold changes over temperatures); higher = more thermally stable than in G1/S
HeLa Kyoto [2] = assay: solubility change mitosis vs G1/S (difference of NP-40 vs SDS log2 ratios) (log2 ratio difference); higher = more soluble in mitosis
HeLa Kyoto [3] = assay: solubility in G1/S (NP-40 vs SDS abundance) (log2 ratio); higher = more soluble; details: cell cycle stage: G1/S
HeLa Kyoto [4] = assay: melting temperature (median over replicates), in situ; higher = more thermally stable
[5] = cell cycle stage: early G1 (4.5 h after nocodazole release)
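Throughout, for melting temperature (median over replicates), in situ: HeLa Kyoto cells synchronized by double thymidine or nocodazole block, proteins quantified by TMT10plex mass spectrometry, three independent biological replicates.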
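Throughout, for solubility change mitosis vs G1/S (difference of NP-40 vs SDS log2 ratios): synchronized HeLa Kyoto cells (double thymidine block for G1/S, nocodazole release for mitosis), protein amounts in NP-40 versus SDS lysates quantified by mass spectrometry, three biological replicates.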
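Throughout, for solubility in G1/S (NP-40 vs SDS abundance): HeLa Kyoto cells arrested at G1/S by double thymidine block, proteins quantified by TMT10plex mass spectrometry in mild NP-40 versus SDS extracts, three biological replicates.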
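Throughout, for thermal stability score vs G1/S (z-score of summed log2 fold changes over temperatures): synchronized HeLa Kyoto cells, proteins quantified by TMT10plex mass spectrometry, three biological replicates, mitosis taken 0.5 h after nocodazole release, G1/S directly after double thymidine block.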

| Sequence | thermal stability score (HeLa Kyoto [1]; [5]) | thermal stability score (HeLa Kyoto [1]; cell cycle stage: mitosis) | solubility change mitosis (log2) (HeLa Kyoto [2]) | solubility in G1/S (log2) (HeLa Kyoto [3]) | melting temperature (HeLa Kyoto [4]; cell cycle stage: G1/S) | melting temperature (HeLa Kyoto [4]; cell cycle stage: mitosis) |
| --- | --- | --- | --- | --- | --- | --- |
| MSLLGDPLQALPPSAAPTGPLLAPPAGATLNRLREPLLRRLSELLDQAPEGRGWRRLAELAGSRGRLRLSCLDLEQCSLKVLEPEGSPSLCLLKLMGEKGCTVTELSDFLQAMEHTEVLQLLSPPGIKITVNPESKAVLAGQFVKLCCRATGHPFVQYQWFKMNKEIPNGNTSELIFNAVHVKDAGFYVCRVNNNFTFEFSQWSQLDVCDIPESFQRSVDGVSESKLQICVEPTSQKLMPGSTLVLQCVAVGSPIPHYQWFKNELPLTHETKKLYMVPYVDLEHQGTYWCHVYNDRDSQDSKKVEIIIGRTDEAVECTEDELNNLGHPDNKEQTTDQPLAKDKVALLIGNMNYREHPKLKAPLVDVYELTNLLRQLDFKVVSLLDLTEYEMRNAVDEFLLLLDKGVYGLLYYAGHGYENFGNSFMVPVDAPNPYRSENCLCVQNILKLMQEKETGLNVFLLDMCRKRNDYDDTIPILDALKVTANIVFGYATCQGAEAFEIQHSGLANGIFMKFLKDRLLEDKKITVLLDEVAEDMGKCHLTKGKQALEIRSSLSEKRALTDPIQGTEYSAESLVRNLQWAKAHELPESMCLKFDCGVQIQLGFAAEFSNVMIIYTSIVYKPPEIIMCDAYVTDFPLDLDIDPKDANKGTPEETGSYLVSKDLPKHCLYTRLSSLQKLKEHLVFTVCLSYQYSGLEDTVEDKQEVNVGKPLIAKLDMHRGLGRKTCFQTCLMSNGPYQSSAATSGGAGHYHSLQDPFHGVYHSHPGNPSNVTPADSCHCSRTPDAFISSFAHHASCHFSRSNVPVETTDEIPFSFSDRLRISEK [MALT1] | 0.111 | 0.543 | -0.158 | -0.00137 | 49 °C | 49.4 °C |
| MSLLLLLLLVSYYVGTLGTHTEIKRVAEEKVTLPCHHQLGLPEKDTLDIEWLLTDNEGNQKVVITYSSRHVYNNLTEEQKGRVAFASNFLAGDASLQIEPLKPSDEGRYTCKVKNSGRYVWSHVILKVLVRPSKPKCELEGELTEGSDLTLQCESSSGTEPIVYYWQRIREKEGEDERLPPKSRIDYNHPGRVLLQNLTMSYSGLYQCTAGNEAGKESCVVRVTVQYVQSIGMVAGAVTGIVAGALLIFLLVWLLIRRKDKERYEEEERPNEIREDAEAPKARLVKPSSSSSGSRSSRSGSSSTRSTANSASRSQRTLSTDAAPQPGLATQAYSLVGPEVRGSEPKKVHHANLTKAETTPSMIPSQSRAFQTV [CLMP] | -1.13 | -0.751 | -0.0674 | 0.0444 | 55 °C | 55.4 °C |
| MSLMVSAGRGLGAVWSPTHVQVTVLQARGLRAKGPGGTSDAYAVIQVGKEKYATSVSERSLGAPVWREEATFELPSLLSSGPAAAATLQLTVLHRALLGLDKFLGRAEVDLRDLHRDQGRRKTQWYKLKSKPGKKDKERGEIEVDIQFMRNNMTASMFDLSMKDKSRNPFGKLKDKIKGKNKDSGSDTASAIIPSTTPSVDSDDESVVKDKKKKSKIKTLLSKSNLQKTPLSQSMSVLPTSKPEKVLLRPGDFQSQWDEDDNEDESSSASDVMSHKRTASTDLKQLNQVNFTLPKKEGLSFLGGLRSKNDVLSRSNVCINGNHVYLEQPEAKGEIKDSSPSSSPSPKGFRKKHLFSSTENLAAGSWKEPAEGGGLSSDRQLSESSTKDSLKSMTLPSYRPAPLVSGDLRENMAPANSEATKEAKESKKPESRRSSLLSLMTGKKDVAKGSEGENPLTVPGREKEGMLMGVKPGEDASGPAEDLVRRSEKDTAAVVSRQGSSLNLFEDVQITEPEAEPESKSEPRPPISSPRAPQTRAVKPRLEVSPEAQPTARLPSPTDSPSSLPPLPSSSGQASVPSELGHGADTQSSESPSVFSSLSSPIAAPISTSTPIESWPLVDRGQAKSEGPPLLPKAELQTESLTPVPNSGSSALGSLFKQPSFPANKGTEDSLMGRTRETGTEKNTSSLELEESLPEQPETGRQEEELPRFPCKKQDYSPSSGEAQEVPFALSLSSDGAVSPVGELAAGGDRDLESQAGSLVESKARDAAEEVAPPLPMGASVPSIDSMMRKLEEMGLNLRKDQKKTKKRVSFSEQLFTEEAVAGAALLVEGHSSCPQELNPAWSVAGNASDGEPPESPHAEDSERESVTTPGPATCGAPASPADHLLLPSQEESFSEVPMSEASSAKDTPLFRMEGEDALVTQYQSKASDHEGLLSDPLSDLQLVSDFKSPIMADLNLSLPSIPEVASDDERIDQVEDDGDQVEDDGETAKSSTLDIGALSLGLVVPCPERGKGPSGEADRLVLGEGLCDFRLQAPQASVTAPSEQTTEFGIHKPHLGKSSSLDKQLPGPSGGEEEKPMGNGSPSPPPGTSLDNPVPSPSPSEIFPVTHSFPSSAHSDTHHTSTAESQKKATAEGSAGRVENFGKRKPLLQAWVSPSETHPVSAQPGAGTGSAKHRLHPVKPMNAMATKVANCSLGTATIISENLNNEVMMKKYSPSDPAFAYAQLTHDELIQLVLKQKETISKKEFQVRELEDYIDNLLVRVMEETPNILRIPTQVGKKAGKM [RAB11FIP1] | 0.112 | 0.383 | -0.196 | 0.306 | 51 °C | 50.1 °C |
| MSLQSAQYLRQAEVLKADMTDSKLGPAEVWTSRQALQDLYQKMLVTDLEYALDKKVEQDLWNHAFKNQITTLQGQAKNRANPNRSEVQANLSLFLEAASGFYTQLLQELCTVFNVDLPCRVKSSQLGIISNKQTHTSAIVKPQSSSCSYICQHCLVHLGDIARYRNQTSQAESYYRHAAQLVPSNGQPYNQLAILASSKGDHLTTIFYYCRSIAVKFPFPAASTNLQKALSKALESRDEVKTKWGVSDFIKAFIKFHGHVYLSKSLEKLSPLREKLEEQFKRLLFQKAFNSQQLVHVTVINLFQLHHLRDFSNETEQHTYSQDEQLCWTQLLALFMSFLGILCKCPLQNESQEESYNAYPLPAVKVSMDWLRLRPRVFQEAVVDERQYIWPWLISLLNSFHPHEEDLSSISATPLPEEFELQGFLALRPSFRNLDFSKGHQGITGDKEGQQRRIRQQRLISIGKWIADNQPRLIQCENEVGKLLFITEIPELILEDPSEAKENLILQETSVIESLAADGSPGLKSVLSTSRNLSNNCDTGEKPVVTFKENIKTREVNRDQGRSFPPKEVRRDYSKGITVTKNDGKKDNNKRKTETKKCTLEKLQETGKQNVAVQVKSQTELRKTPVSEARKTPVTQTPTQASNSQFIPIHHPGAFPPLPSRPGFPPPTYVIPPPVAFSMGSGYTFPAGVSVPGTFLQPTAHSPAGNQVQAGKQSHIPYSQQRPSGPGPMNQGPQQSQPPSQQPLTSLPAQPTAQSTSQLQVQALTQQQQSPTKAVPALGKSPPHHSGFQQYQQADASKQLWNPPQVQGPLGKIMPVKQPYYLQTQDPIKLFEPSLQPPVMQQQPLEKKMKPFPMEPYNHNPSEVKVPEFYWDSSYSMADNRSVMAQQANIDRRGKRSPGVFRPEQDPVPRMPFEKSLLEKPSELMSHSSSFLSLTGFSLNQERYPNNSMFNEVYGKNLTSSSKAELSPSMAPQETSLYSLFEGTPWSPSLPASSDHSTPASQSPHSSNPSSLPSSPPTHNHNSVPFSNFGPIGTPDNRDRRTADRWKTDKPAMGGFGIDYLSATSSSESSWHQASTPSGTWTGHGPSMEDSSAVLMESLKSIWSSSMMHPGPSALEQLLMQQKQKQQRGQGTMNPPH [SMG7] | 0.868 | 1.4 | -0.127 | 0.0703 | 50.4 °C | 49.3 °C |
| MSLVAEAFVSQIAAAEPWPENATLYQQLKGEQILLSDNAASLAVQAFLQMCNLPIKVVCRANAEYMSPSGKVPFIHVGNQVVSELGPIVQFVKAKGHSLSDGLEEVQKAEMKAYMELVNNMLLTAELYLQWCDEATVGEITHARYGSPYPWPLNHILAYQKQWEVKRKMKAIGWGKKTLDQVLEDVDQCCQALSQRLGTQPYFFNKQPTELDALVFGHLYTILTTQLTNDELSEKVKNYSNLLAFCRRIEQHYFEDRGKGRLS [MTX2] | -0.339 | -0.187 | 0.0491 | 0.186 | 51.4 °C | 52.2 °C |
| MSMEDPFFVVKGEVQKAVNTAQGLFQRWTELLQDPSTATREEIDWTTNELRNNLRSIEWDLEDLDETISIVEANPRKFNLDATELSIRKAFITSTRQVVRDMKDQMSTSSVQALAERKNRQALLGDSGSQNWSTGTTDKYGRLDRELQRANSHFIEEQQAQQQLIVEQQDEQLELVSGSIGVLKNMSQRIGGELEEQAVMLEDFSHELESTQSRLDNVMKKLAKVSHMTSDRRQWCAIAILFAVLLVVLILFLVL [STX6] | 1.56 | -0.616 | -0.118 | -0.167 | 53.5 °C | 52.9 °C |
| MSNTTVVPSTAGPGPSGGPGGGGGGGGGGGGTEVIQVTNVSPSASSEQMRTLFGFLGKIDELRLFPPDDSPLPVSSRVCFVKFHDPDSAVVAQHLTNTVFVDRALIVVPYAEGVIPDEAKALSLLAPANAVAGLLPGGGLLPTPNPLTQIGAVPLAALGAPTLDPALAALGLPGANLNSQSLAADQLLKLMSTVDPKLNHVAAGLVSPSLKSDTSSKEIEEAMKRVREAQSLISAAIEPDKKEEKRRHSRSRSRSRRRRTPSSSRHRRSRSRSRRRSHSKSRSRRRSKSPRRRRSHSRERGRRSRSTSKTRDKKKEDKEKKRSKTPPKSYSTARRSRSASRERRRRRSRSGTRSPKKPRSPKRKLSRSPSPRRHKKEKKKDKDKERSRDERERSTSKKKKSKDKEKDRERKSESDKDVKQVTRDYDEEEQGYDSEKEKKEEKKPIETGSPKTKECSVEKGTGDSLRESKVNGDDHHEEDMDMSD [SRSF11] | 1.04 | 3.54 | 0.175 | -0.739 | 49.7 °C | 50.4 °C |
| MSNYSVSLVGPAPWGFRLQGGKDFNMPLTISSLKDGGKAAQANVRIGDVVLSIDGINAQGMTHLEAQNKIKGCTGSLNMTLQRASAAPKPEPVPVQKGEPKEVVKPVPITSPAVSKVTSTNNMAYNKAPRPFGSVSSPKVTSIPSPSSAFTPAHATTSSHASPSPVAAVTPPLFAASGLHANANLSADQSPSALSAGKTAVNVPRQPTVTSVCSETSQELAEGQRRGSQGDSKQQNGPPRKHIVERYTEFYHVPTHSDASKKRLIEDTEDWRPRTGTTQSRSFRILAQITGTEHLKESEADNTKKANNSQEPSPQLASSVASTRSMPESLDSPTSGRPGVTSLTAAAAFKPVGSTGVIKSPSWQRPNQGVPSTGRISNSATYSGSVAPANSALGQTQPSDQDTLVQRAEHIPAGKRTPMCAHCNQVIRGPFLVALGKSWHPEEFNCAHCKNTMAYIGFVEEKGALYCELCYEKFFAPECGRCQRKILGEVISALKQTWHVSCFVCVACGKPIRNNVFHLEDGEPYCETDYYALFGTICHGCEFPIEAGDMFLEALGYTWHDTCFVCSVCCESLEGQTFFSKKDKPLCKKHAHSVNF [PDLIM5] | -0.121 | 0.334 | 0.0095 | 0.0686 | 52.1 °C | 52.6 °C |
| MSPAPDAAPAPASISLFDLSADAPVFQGLSLVSHAPGEALARAPRTSCSGSGERESPERKLLQGPMDISEKLFCSTCDQTFQNHQEQREHYKLDWHRFNLKQRLKDKPLLSALDFEKQSSTGDLSSISGSEDSDSASEEDLQTLDRERATFEKLSRPPGFYPHRVLFQNAQGQFLYAYRCVLGPHQDPPEEAELLLQNLQSRGPRDCVVLMAAAGHFAGAIFQGREVVTHKTFHRYTVRAKRGTAQGLRDARGGPSHSAGANLRRYNEATLYKDVRDLLAGPSWAKALEEAGTILLRAPRSGRSLFFGGKGAPLQRGDPRLWDIPLATRRPTFQELQRVLHKLTTLHVYEEDPREAVRLHSPQTHWKTVREERKKPTEEEIRKICRDEKEALGQNEESPKQGSGSEGEDGFQVELELVELTVGTLDLCESEVLPKRRRRKRNKKEKSRDQEAGAHRTLLQQTQEEEPSTQSSQAVAAPLGPLLDEAKAPGQPELWNALLAACRAGDVGVLKLQLAPSPADPRVLSLLSAPLGSGGFTLLHAAAAAGRGSVVRLLLEAGADPTVQDSRARPPYTVAADKSTRNEFRRFMEKNPDAYDYNKAQVPGPLTPEMEARQATRKREQKAARRQREEQQQRQQEQEEREREEQRRFAALSDREKRALAAERRLAAQLGAPTSPIPDSAIVNTRRCWSCGASLQGLTPFHYLDFSFCSTRCLQDHRRQAGRPSS [ANKZF1] | 0.638 | 1.02 | -0.104 | 0.0804 | 49.7 °C | 50.1 °C |
